Starred links: 1 amine or outer side, 2 acyl side, 3 side chain; linkers in the order of their positions; H or OH if unused. Non-standard residues stand in square brackets, D forms with d. Groups on a side chain read outwards from the residue. Primed or numbered codes have the meaning given here. No end group written: not given here. *: point of attachment. γGlu = O=C(O)[C@H](CCC(=O)[*:2])N[*:1]; Palmitoyl = CCCCCCCCCCCCCCCC(=O)*; αMeF = C[C@](N)(Cc1ccccc1)C(=O)O; Myristoyl = CCCCCCCCCCCCCC(=O)*; αMeK = C[C@](N)(CCCCN)C(=O)O; Lauroyl = CCCCCCCCCCCC(=O)*; αMeS = C[C@](N)(CO)C(=O)O; Nle = CCCC[C@H](N)C(=O)O; PEG2′ = not defined here; Aib = CC(C)(N)C(=O)O
T1: glucose-dependent insulinotropic peptide (gastric inhibitory polypeptide) receptor (GIPR), primary cAMP assay (human, UniProt P48546 22-466)
T1 sequence (looked up): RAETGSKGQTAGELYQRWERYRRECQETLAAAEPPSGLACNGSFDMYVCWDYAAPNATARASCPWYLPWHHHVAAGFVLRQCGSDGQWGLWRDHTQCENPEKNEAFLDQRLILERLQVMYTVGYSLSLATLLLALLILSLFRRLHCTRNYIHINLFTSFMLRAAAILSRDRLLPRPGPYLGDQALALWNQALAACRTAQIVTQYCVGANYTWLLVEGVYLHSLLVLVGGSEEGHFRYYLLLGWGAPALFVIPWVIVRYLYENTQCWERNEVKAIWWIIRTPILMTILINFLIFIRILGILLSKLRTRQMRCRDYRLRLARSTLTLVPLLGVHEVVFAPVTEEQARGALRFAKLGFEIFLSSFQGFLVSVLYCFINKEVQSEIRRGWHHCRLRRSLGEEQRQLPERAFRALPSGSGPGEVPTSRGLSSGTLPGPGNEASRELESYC

T2: GLP-1R in the INS1e assay (UniProt P32301 22-463, limits assumed)
T2 sequence (looked up): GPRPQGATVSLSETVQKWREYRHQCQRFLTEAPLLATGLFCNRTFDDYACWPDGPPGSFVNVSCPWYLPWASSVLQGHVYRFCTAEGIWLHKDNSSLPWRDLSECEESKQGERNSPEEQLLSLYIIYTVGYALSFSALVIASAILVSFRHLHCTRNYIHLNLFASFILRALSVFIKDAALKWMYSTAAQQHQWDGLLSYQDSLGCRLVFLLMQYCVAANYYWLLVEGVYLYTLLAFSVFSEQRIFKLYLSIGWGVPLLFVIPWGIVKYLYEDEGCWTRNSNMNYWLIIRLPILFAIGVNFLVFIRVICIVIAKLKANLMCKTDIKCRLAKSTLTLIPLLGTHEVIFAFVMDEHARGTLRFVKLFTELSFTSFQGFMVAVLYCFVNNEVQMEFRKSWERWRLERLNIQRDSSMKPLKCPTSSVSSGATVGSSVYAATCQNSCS

B1: SEQ ID NO: 265 (peptide)
peptide: H[Aib]EGS[αMeF]TSDV[αMeS]SK([PEG2′-PEG2′-γGlu-Palmitoyl])LEGEAA[αMeK]EFIK([PEG2′-PEG2′-γGlu-Palmitoyl])WVVEGG-NH2
B2: SEQ ID NO: 405 (peptide)
peptide: H[Aib]EGS[αMeF]TSDV[αMeS]SK([PEG2′-PEG2′-γGlu-Lauroyl])LEGEAA[αMeK]E[αMeF]IAK([PEG2′-PEG2′-γGlu-Lauroyl])VVEGG-NH2
B3: SEQ ID NO: 269 (peptide)
peptide: H[Aib]EGS[αMeF]TSDV[αMeS]SYK([PEG2′-PEG2′-γGlu-Lauroyl])EGEAA[αMeK]EFIAK([PEG2′-PEG2′-γGlu-Lauroyl])VVEGG-NH2
B4: SEQ ID NO: 409 (peptide)
peptide: H[Aib]EGS[αMeF]TSDV[αMeS]SK([PEG2′-PEG2′-γGlu-Palmitoyl])LEGEAA[αMeK]E[αMeF]IAK([PEG2′-PEG2′-γGlu-Palmitoyl])VVEGG-NH2
B5: SEQ ID NO: 408 (peptide)
peptide: H[Aib]EGS[αMeF]TSDV[αMeS]SK([PEG2′-PEG2′-γGlu-Myristoyl])LEGEAA[αMeK]E[αMeF]IAK([PEG2′-PEG2′-γGlu-Myristoyl])VVEGG-NH2
B6: SEQ ID NO: 407 (peptide)
peptide: H[Aib]EGS[αMeF]TSDV[αMeS]SK([PEG2′-PEG2′-γGlu-Lauroyl])LEGEAA[αMeK]E[Nle]IAK([PEG2′-PEG2′-γGlu-Lauroyl])VVEGG-NH2

Key:
Experiment in all cases: cell-based or functional assay
[1] = target: T1, glucose-dependent insulinotropic …
[2] = target: glucagon receptor (GCGR), primary cAMP assay (human, UniProt P47871 26-477)
[3] = target: GLP-1 receptor (GLP-1R), primary cAMP assay (human, UniProt P43220 24-463)
[4] = target: T2, GLP-1R in the INS1e assay

Sequence of glucagon receptor (GCGR), primary cAMP assay (P47871 26-477): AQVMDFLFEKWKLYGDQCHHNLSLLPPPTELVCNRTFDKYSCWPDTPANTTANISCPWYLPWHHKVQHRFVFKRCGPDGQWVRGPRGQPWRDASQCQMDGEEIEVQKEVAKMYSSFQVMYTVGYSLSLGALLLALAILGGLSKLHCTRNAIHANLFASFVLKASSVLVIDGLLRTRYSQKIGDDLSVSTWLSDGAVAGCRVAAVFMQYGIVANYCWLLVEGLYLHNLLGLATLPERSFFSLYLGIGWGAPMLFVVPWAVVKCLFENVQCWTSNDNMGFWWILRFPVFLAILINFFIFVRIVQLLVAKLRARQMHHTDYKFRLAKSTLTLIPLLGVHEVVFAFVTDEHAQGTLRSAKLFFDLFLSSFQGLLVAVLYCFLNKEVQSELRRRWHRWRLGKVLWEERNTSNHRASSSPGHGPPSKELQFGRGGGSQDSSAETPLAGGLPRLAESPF

Binder	Primary assay EC50 (cAMP), n1 [1]	Primary assay EC50 (cAMP), n2 [1]	Primary assay EC50 (cAMP), n1 [2]	Primary assay EC50 (cAMP), n2 [2]	Primary assay EC50 (cAMP) Mean [3]	Primary assay EC50 (cAMP), n1 [3]	Primary assay EC50 (cAMP), n2 [3]	INS1e assay EC50 (cAMP) Mean [4]	INS1e assay EC50 (cAMP) n1 [4]	INS1e assay EC50 (cAMP) n2 [4]
B1	21.6 nM	21.6 nM	21.6 nM	21.6 nM	0.0336 nM	0.0391 nM	0.028 nM	8.77 nM	12.2 nM	5.34 nM
B2	21.5 nM	21.5 nM	21.5 nM	21.5 nM	0.0039 nM	0.00405 nM	0.00366 nM	0.116 nM	0.11 nM	0.121 nM
B3	22.8 nM	22.8 nM	22.8 nM	22.8 nM	0.0046 nM	0.00401 nM	0.00524 nM	0.212 nM	0.243 nM	0.181 nM
B4	21.5 nM	21.5 nM	21.5 nM	21.5 nM	0.0361 nM	0.0395 nM	0.0326 nM	0.216 nM	0.183 nM	0.249 nM
B5	21.5 nM	21.5 nM	21.5 nM	21.5 nM	0.0089 nM	0.00996 nM	0.00789 nM	0.412 nM	0.376 nM	0.448 nM
B6	21.5 nM	21.5 nM	21.5 nM	21.5 nM	0.002 nM	0.00196 nM	0.00201 nM	0.104 nM	0.113 nM	0.0952 nM
